Laboratory results from US20190307797A1 (MAX DELBR CK CENTRUM F R MOLEKULARE MEDIZIN IN DER …, published 2019).

Biological target: T1, purified BCMA (CD269) extracellular domain (human, UniProt Q02223 4-54)
T1 construct: also called BCMA extracellular domain; extracellular domain of CD269
T1 sequence: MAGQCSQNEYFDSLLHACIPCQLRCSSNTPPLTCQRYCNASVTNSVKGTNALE
Test: co-crystallisation, crystal structure of the complex

binding result: binds
B1: Fab fragment prepared from the mouse or chimeric antibody from which the CAR was derived (chimeric antibody J22.9-xi) (Fab, V domains shown)
VH: QVQLQQSGGGLVQPGGSLKLSCAASGIDFSRYWMSWVRRAPGKGLEWIGEINPDSSTINYAPSLKDKFIISRDNAKNTLYLQMSKVRSEDTALYYCASLYYDYGDAMDYWGQGTSVTVSS
VL: DIVMTQSQRFMTTSVGDRVSVTCKASQSVDSNVAWYQQKPRQSPKALIFSASLRFSGVPARFTGSGSGTDFTLTISNLQSEDLAEYFCQQYNNYPLTFGAGTKLELKR
notes: also called J22.9-xi Fab; Fab fragments prepared from mouse or chimeric antibodies
